The source of these data is US20050137130A1, “Medical treatment” (priority 2001, published 2005).

This experiment relates to activated human CD4+ T cells. Description: Cytokine production (ELISA) by human CD4+ T cells stimulated with anti-CD3/CD28 beads and Delta1 beads, with added soluble protein. It is filed as cell-based. Particulars: increasing amounts of soluble protein in culture medium, 3 days. Here is the method: M450 Streptavidin Dynabead™ magnetic beads (Dynal, USA) were coated with an anti-human-IgG4 biotinylated monoclonal antibody (BD Bioscience, 555879) by rotating them in the presence of the antibody for 30 minutes at room temperature. Beads were washed three times with PBS (1 ml). They were further incubated with hDelta1-hIgG4 (see Example 1 above) for 2 hours at room temperature and then washed three times with PBS (1 ml).
Human peripheral blood mononuclear cells (PBMC) were purified from blood using Ficoll-Paque separation medium (Pharmacia). Briefly, 28 ml of blood were overlaid on 21 ml of Ficoll-Paque separation medium and centrifuged at 18-20° C. for 40 minutes at 400 g. PBMC were recovered from the interface and washed 3 times before use for CD4+ T cell purification.
The CD4+ T cells were incubated in triplicates in a 96-well-plate (flat bottom) at 10^5 CD4/well/200 μl in RPMI medium containing 10% FCS, glutamine, penicillin, streptomycin and β2-mercaptoethanol.
Cytokine production was induced by stimulating the cells with anti-CD3/CD28 T cell expander beads from Dynal at a 1:1 ratio (bead/cell) in the presence of beads coated with hDelta1-IgG4Fc fusion protein (Example 1 above) at a 5:1 ratio (beads/cell). In some wells, increasing amounts of soluble hdelta1-IgG4Fc fusion protein were also added.
The supernatants were removed after 3 days of incubation at 37° C./5% CO2/humidified atmosphere and cytokine production was evaluated by ELISA using Pharmingen kits OptEIA Set human IL10 (catalog No. 555157), OptEIA Set human IL-5 (catalog No. 555202) for IL-10 and IL-5 respectively according to the manufacturer's instructions.
Human peripheral blood mononuclear cells (PBMC) were purified from blood using Ficoll-Paque separation medium (Pharmacia). […]
The supernatants were removed after 3 days of incubation at 37° C./5% CO2/humidified atmosphere and cytokine production was evaluated by ELISA using Pharmingen kits OptEIA Set human IL10 (Catalog No. 555157), OptEIA Set human IL-5 (Catalog No. 555202) for IL-10 and IL-5 respectively according to the manufacturer's instructions. […]

B1: rat Notch1-hIgG1Fc: R&D Systems Catalog No 1057-TK; 12 amino terminal EGF domains of rat Notch-1 fused to the Fc region of human IgG (protein)
chain: ARGLRCSQPSGTCLNGGRCEVANGTEACVCSGAFVGQRCQDPSPCLSTPCKNAGTCYVVDHGGIVDYACSCPLGFSGPLCLTPLANACLANPCRNGGTCDLLTLTEYKCRCPPGWSGKSCQQADPCASNPCANGGQCLPFESSYICGCPPGFHGPTCRQDVNECSQNPGLCRHGGTCHNEIGSYRCACRATHTGPHCELPYVPCSPSPCQNGGTCRPTGDTTHECACLPGFAGQNCEENVDDCPGNNCKNGGACVDGVNTYNCRCPPEWTGQYCTEDVDECQLMPNACQNGGTCHNSHGGYNCVCVNGWTGEDCSENIDDCASAACFQGATCHDRVASFYCECPHGRTGLLCHLNDACISNPCNEGSNCDTNPVNGKAICTCPSGYTGPACSQDVDECALGANPCEHAGKCLNTLGSFECQCLQGYTGPRCEIDVNECISNPCQNDATCLDQIGEFQCICMPGYEGVYCEIEGRMD
modifications: left off: a dimerising Fc or GST
notes: R&D Systems Catalog No 1057-TK; 12 amino terminal EGF domains of rat Notch-1 fused to the Fc region of human IgG
With B1, the “effect of added soluble protein on the IL-10 enhancement by bead-immobilised Delta1” value is “inhibited”.
